Source: patent US20220110894A1 (ACCUBIT LLC BIOTECHNOLOGY, published 2022)
Positions count from the first letter of the chain named. Names may count otherwise.

How the values were obtained:
[1] = target: the molecule itself; test: SEC, self-association into poly-rIgA1
[2] = target: the molecule itself; test: SEC, non-reducing SDS-PAGE and TEM; self-association of rIgA duplexes into poly-rIgA
Procedure: Before running on SEC, samples were treated with the drugs at indicated concentrations at 37° C. for one hour.
(§1) In the meantime, the SEC column was also equilibrated with PBS supplemented with the reducing agent at the same concentration. For running SEC, 100 μL of the recombinant IgA (concentration varies between 1 mg/mL and 8 mg/mL) or purified native human IgA1 (˜1 mg/mL) was loaded to the column and UV absorption was recorded following elution. Recombinant IgA typically formed two elution peaks: a minor peak of ˜800 kDa poly-rIgA followed by a major peak of ˜170 kDa of monomeric rIgA. The ratios between poly-rIgA and mono-rIgA were calculated as between the corresponding areas under the curve (AUC), and the treatment effect of the thiol agents was judged by the reduction of the poly-rIgA level with a compensatory increase of the mono-rIgA content.
To further investigate specific cysteine residue(s) involved in IgA complexes, expression vectors were constructed to produce recombinant IgA (rIgA) Fc segments of rat and human sequences (FIG. 2, part A) as discussed above. Rat IgA analogs were expressed in BL21 DE3 strain of E. coil and recombinant protein were purified from the bacterial lysate using Histrap HP columns (GE Healthcare) by running fast protein liquid chromatography (FPLC). […]

[3] = target: the molecule itself; test: SEC, self-association into poly-rIgA
Procedure: as §1
Considering that the fragment contained Cys311 and Cys471 that, in the absence of J-chain and SC, were in their free forms and available for connecting other rIgA units, mutagenesis studies were conducted of these two cysteines. Cys311 and Cys471 were either individually, or together, mutated to serine (S) as discussed above. […] By examining the SEC traces of these mutants, it was noticed that, while the monomers of all variants appeared the same, there were dramatic differences in the poly-rIgA contents. […] Meanwhile, C311S-alone still had poly-rIgA contents, albeit eluted at a different time in SEC than the wild-type protein (FIG. 3, part F). […]

B1: human rIgA1-Fc (human IgA1-Fc CH2-CH3-TP) (other)
chain: SCCHPRLSLHRPALEDLLLGSEANLTCTLTGLRDASGVTFTWTPSSGKSAVQGPPERDLCGCYSVSSVLPGCAEPWNHGKTFTCTAAYPESKTPLTATLSKSGNTFRPEVHLLPPPSEELALNELVTLTCLARGFSPKDVLVRWLQGSQELPREKYLTWASRQEPSQGTTTFAVTSILRVAAEDWKKGDTFSCMVGHEALPLAFTQKTIDRLAGKPTHVNVSVVMAEVDGTCY
notes: Produced in HEK293 cells, secreted; also called hu-rIgA; wild-type rIgA1; not shown: 6xHis-tag at the N-terminus after the IL-2 signal peptide (secreted)
B1: binds [1].

B2: wild-type rat IgA-Fc segment of CH2-CH3-TP (recombinant rat rIgA) (other)
chain: SCSLVCRPRLSLQRPALEDLLLGSEASLTCTLRGLKEPTGAVFTWQPTTGKDAVQKEAVQDSCGCYTVSSVLPGCAERWNNGETFTCTATHPEFETPLTGEIAKVTENTFPPQVHLLPPPSEELALNELVSLTCLVRGFNPKDVLVRWLQGNEELPSESYLVFEPLREPGEGAITYLVTSVLRVSAETWKQGAQYSCMVGHEALPMSFTQKTIDRLSGKPTNVNVSVIMSEGDGICY
notes: Expressed in E. coli BL21 DE3; Two chains form a duplex called mono-rIgA; poly-rIgA is its disulfide-linked self-aggregate; also called mono-rIgA; poly-rIgA; not shown: N-terminal 6xHis-tag from the PET30a vector
B2: binds [2].

B3: rat rIgA C311S single mutant (other)
chain: B2 chain with C75S
notes: also called C311S-alone; not shown: N-terminal 6xHis-tag from the PET30a vector
B3: binds [3].
